{"source": "paper PMC12167477", "about": "“Setdb1 and Atf7IP form a hetero-trimeric complex that blocks Setdb1 nuclear export” (The Journal of Biological Chemistry, 2025)", "binders": {"B1": {"name": "biotinylated Avitag-MBP-Atf7IP(574-666) (domain or fragment, human, UniProt Q6VMQ6 574-666, looked up)", "chain": "EEEYEAEFQVKITAKGDINQKLQKVIQWLLEEKLCALQCAVFDKTLAELKTRVEKIECNKRHKTVLTELQAKIARLTKRFEAAKEDLKKRHEH", "modifications": "biotin on the AviTag (cultures supplemented with 40 uM biotin, birA co-expressed)", "notes": "The methods describe only the Avitag-MBP form as purified on its own; also called MBP-Atf71P; source: E. coli, co-expressed with birA and biotin, purified (MBPTrap, Superdex 200); not shown: AviTag, N-terminal, kept; MBP, N-terminal, kept"}, "B2": {"name": "his-sumo-Atf7IP(574-666) (domain or fragment, human, UniProt Q6VMQ6 574-666, looked up)", "chain": "EEEYEAEFQVKITAKGDINQKLQKVIQWLLEEKLCALQCAVFDKTLAELKTRVEKIECNKRHKTVLTELQAKIARLTKRFEAAKEDLKKRHEH", "notes": "not shown: His6, N-terminal, kept; SUMO, N-terminal, kept"}, "B3": {"name": "MBP-Atf7IP(574-666) C608S C612S (domain or fragment, human, UniProt Q6VMQ6 574-666, looked up)", "chain": "EEEYEAEFQVKITAKGDINQKLQKVIQWLLEEKLSALQSAVFDKTLAELKTRVEKIECNKRHKTVLTELQAKIARLTKRFEAAKEDLKKRHEH", "notes": "The methods name the synthesised vector without the MBP tag on Atf7IP; the results call the protein MBP-Atf7IP; also called Atf7IP(C631); source: also used in isolation; not shown: MBP, N-terminal, kept"}, "B4": {"name": "his-sumo-Setdb1(Δα1; residues 35-115) (domain or fragment, human, UniProt Q15047 35-115, looked up)", "chain": "ISMEELRHFIDEELEKMDCVQQRKKQLAELETWVIQKESEVAHVDQLFDDASRAVTNCESLVKDFYSKLGLQYRDSSSEDE", "notes": "source: E. coli, purified (HisTrap, dialysis); not shown: His6, N-terminal, kept; SUMO, N-terminal, kept"}, "B5": {"name": "Atf7IP2(297-388), his-sumo- or Strep-tagged (domain or fragment, UniProt Q5U623 297-388, looked up)", "chain": "MKTSEQINENICVSLERQTAFLEQVRHLIQQEIYSINYELFDKKLKELNQRIGKTECRNKHEGIADKLLAKIAKLQRRIKTVLLFQRNCLKP", "notes": "Atf7IP2, coiled coil region, residues 297-388; Two differently tagged copies of one fragment, written as one molecule; in the mixed trimer with Atf7IP only the Strep-tagged copy was there; also called his-sumo-Atf7IP2(297-388); Strep-Atf7IP2(297-388); not shown: His6-SUMO (one copy) or Strep (the other copy), N-terminal, kept"}, "B6": {"name": "his-sumo-Setdb1(Δα1-α2; residues 50-115) (domain or fragment, human, UniProt Q15047 50-115, looked up)", "chain": "KMDCVQQRKKQLAELETWVIQKESEVAHVDQLFDDASRAVTNCESLVKDFYSKLGLQYRDSSSEDE", "notes": "as for B4"}}, "key": {"[1]": {"target": "the molecule itself", "assay": "SEC; gel filtration of isolated MBP-Atf7IP(574-666) with and without Tween 20 in the buffer"}, "[2]": {"target": "T1, GST-Setdb1(2-115) (human, UniProt Q15047 2-115)", "T1 construct": "source: E. coli, purified (GSTTrap, Superdex 200); not shown: GST, N-terminal, kept", "assay": "pull-down; 0.5 uM GST-fusion immobilised on glutathione Sepharose beads; 1.5 uM hCrm1 with or without 4.5 uM RanGTP; with or without pre-incubation with MBP-Atf7IP(574-666) (3-fold or 15-fold excess); 20 mM HEPES 7.4, 110 mM potassium acetate, 2 mM magnesium acetate, 10% glycerol, 2 mM DTT, 0.005% Tween20; Coomassie SDS-PAGE", "conditions": "both partners purified"}, "[3]": {"target": "T2, his-sumo-Setdb1(2-115) (human, UniProt Q15047 2-115)", "T2 construct": "also called his-sumo-Setdb1(2-114); source: E. coli (BL21DE3 or Rosetta2), purified (HisTrap, dialysis); not shown: His6, N-terminal, kept; SUMO, N-terminal, kept", "assay": "AlphaScreen or HTRF; AlphaScreen His-Detection kit: nickel chelate acceptor beads and streptavidin donor beads; both proteins at 20 nM, or one at 20 nM and the other 0 to 20 nM; 50 mM MOPS, 50 mM CHAPS, 50 mM NaF, 100 ug/ml BSA, pH 7; room temperature; triplicates", "conditions": "both partners purified"}, "[4]": {"target": "T3, MBP-Setdb1(2-115) (human, UniProt Q15047 2-115)", "T3 construct": "The methods list the MBP tag of the vectors as AviTag-Mbp; also called MBP-Setdb1(2-114); not shown: MBP, N-terminal, kept", "assay": "SEC-MALS; co-expressed and purified complex, about 400 ul at about 1 mg/ml, Superdex 200 Increase 10/300", "conditions": "both partners purified"}, "[5]": {"target": "the molecule itself", "assay": "native MS; co-expressed and purified MBP-Setdb1(2-115)/his-sumo-Atf7IP(574-666) complex, 500 nM, 400 mM ammonium acetate pH 7.9, 1 mM DTT; Q Exactive UHMR; HCD fragmentation"}, "[6]": {"target": "the molecule itself", "assay": "cross-linking; disulfide cross-linking of MBP-Atf7IP(574-666) with only C631, in isolation; SDS-PAGE with and without BME"}, "[7]": {"target": "B1", "assay": "AlphaScreen or HTRF; AlphaScreen His-Detection kit: nickel chelate acceptor beads and streptavidin donor beads; both proteins at 20 nM, or one at 20 nM and the other 0 to 20 nM; 50 mM MOPS, 50 mM CHAPS, 50 mM NaF, 100 ug/ml BSA, pH 7; room temperature; triplicates", "conditions": "both partners purified"}, "[8]": {"target": "T3, MBP-Setdb1(2-115)", "assay": "pull-down; three tagged proteins co-expressed in E. coli, complex purified sequentially by the his tag and then the strep tag; SDS-PAGE", "conditions": "partners not purified"}}}
{"binder": "B1", "values": [{"measurement": "binding result", "setting": "[1]", "value": "binds"}, {"measurement": "binding result", "setting": "[2]", "value": "binds"}, {"measurement": "binding result", "setting": "[3]", "value": "binds"}]}
{"binder": "B2", "values": [{"measurement": "stoichiometry N", "setting": "[4]", "value": 2, "unit": "Atf7IP per Setdb1"}, {"measurement": "binding result", "setting": "[5]", "value": "binds"}]}
{"binder": "B3", "values": [{"measurement": "binding result", "setting": "[6]", "value": "binds"}]}
{"binder": "B4", "values": [{"measurement": "binding, percent of WT", "setting": "[7]", "value": "~80 % of WT"}]}
{"binder": "B5", "values": [{"measurement": "stoichiometry N", "setting": "[8]", "value": 2, "unit": "Atf7IP2 per Setdb1"}]}
{"binder": "B6", "values": [{"measurement": "binding, percent of WT", "setting": "[7]", "value": "~30 % of WT"}]}
